Results reported in IntAct's records for PubMed 31515488.

B1: Notch homolog 2 N-terminal-like protein A (Homo sapiens), Q7Z3S9 (parent)
chain: MCVTYHNGTGYCKCPEGFLGEYCQHRDPCEKNRCQNGGTCVAQAMLGKATCRCASGFTGEDCQYSTSHPCFVSRPCLNGGTCHMLSRDTYECTCQVGFTGKECQWTDACLSHPCANGSTCTTVANQFSCKCLTGFTGQKCETDVNECDIPGHCQHGGTCLNLPGSYQCQCLQGFTGQYCDSLYVPCAPSPCVNGGTCRQTGDFTFECNCLPETVRRGTELWERDREVWNGKEHDEN
partner: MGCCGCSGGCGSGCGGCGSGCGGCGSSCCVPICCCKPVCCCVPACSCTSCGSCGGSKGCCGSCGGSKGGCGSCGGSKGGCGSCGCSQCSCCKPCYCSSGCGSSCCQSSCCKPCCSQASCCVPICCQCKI
B2: Serine/threonine-protein kinase PAK 5 (Homo sapiens), Q9P286 (parent)
chain: MFGKKKKKIEISGPSNFEHRVHTGFDPQEQKFTGLPQQWHSLLADTANRPKPMVDPSCITPIQLAPMKTIVRGNKPCKETSINGLLEDFDNISVTRSNSLRKESPPTPDQGASSHGPGHAEENGFITFSQYSSESDTTADYTTEKYREKSLYGDDLDPYYRGSHAAKQNGHVMKMKHGEAYYSEVKPLKSDFARFSADYHSHLDSLSKPSEYSDLKWEYQRASSSSPLDYSFQFTPSRTAGTSGCSKESLAYSESEWGPSLDDYDRRPKSSYLNQTSPQPTMRQRSRSGSGLQEPMMPFGASAFKTHPQGHSYNSYTYPRLSEPTMCIPKVDYDRAQMVLSPPLSGSDTYPRGPAKLPQSQSKSGYSSSSHQYPSGYHKATLYHHPSLQSSSQYISTASYLSSLSLSSSTYPPPSWGSSSDQQPSRVSHEQFRAALQLVVSPGDPREYLANFIKIGEGSTGIVCIATEKHTGKQVAVKKMDLRKQQRRELLFNEVVIMRDYHHDNVVDMYSSYLVGDELWVVMEFLEGGALTDIVTHTRMNEEQIATVCLSVLRALSYLHNQGVIHRDIKSDSILLTSDGRIKLSDFGFCAQVSKEVPKRKSLVGTPYWMAPEVISRLPYGTEVDIWSLGIMVIEMIDGEPPYFNEPPLQAMRRIRDSLPPRVKDLHKVSSVLRGFLDLMLVREPSQRATAQELLGHPFLKLAGPPSCIVPLMRQYRHH
partner: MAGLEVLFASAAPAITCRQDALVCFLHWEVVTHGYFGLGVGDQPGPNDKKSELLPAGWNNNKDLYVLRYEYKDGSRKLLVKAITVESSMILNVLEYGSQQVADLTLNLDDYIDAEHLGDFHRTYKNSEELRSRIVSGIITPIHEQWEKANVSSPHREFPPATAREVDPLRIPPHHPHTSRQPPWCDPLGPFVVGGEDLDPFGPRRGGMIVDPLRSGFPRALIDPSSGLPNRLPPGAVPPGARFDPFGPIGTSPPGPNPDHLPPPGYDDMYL
B3: DCC-interacting protein 13-beta (Homo sapiens), Q8NEU8 (parent)
chain: MPAVDKLLLEEALQDSPQTRSLLSVFEEDAGTLTDYTNQLLQAMQRVYGAQNEMCLATQQLSKQLLAYEKQNFALGKGDEEVISTLHYFSKVVDELNLLHTELAKQLADTMVLPIIQFREKDLTEVSTLKDLFGLASNEHDLSMAKYSRLPKKKENEKVKTEVGKEVAAARRKQHLSSLQYYCALNALQYRKQMAMMEPMIGFAHGQINFFKKGAEMFSKRMDSFLSSVADMVQSIQVELEAEAEKMRVSQQELLSVDESVYTPDSDVAAPQINRNLIQKAGYLNLRNKTGLVTTTWERLYFFTQGGNLMCQPRGAVAGGLIQDLDNCSVMAVDCEDRRYCFQITTPNGKSGIILQAESRKENEEWICAINNISRQIYLTDNPEAVAIKLNQTALQAVTPITSFGKKQESSCPSQNLKNSEMENENDKIVPKATASLPEAEELIAPGTPIQFDIVLPATEFLDQNRGSRRTNPFGETEDESFPEAEDSLLQQMFIVRFLGSMAVKTDSTTEVIYEAMRQVLAARAIHNIFRMTESHLMVTSQSLRLIDPQTQVSRANFELTSVTQFAAHQENKRLVGFVIRVPESTGEESLSTYIFESNSEGEKICYAINLGKEIIEVQKDPEALAQLMLSIPLTNDGKYVLLNDQPDDDDGNPNEHRGAESEA
B4: Tuftelin-interacting protein 11 (Homo sapiens), Q9UBB9 (parent)
chain: MSLSHLYRDGEGRIDDDDDERENFEITDWDLQNEFNPNRQRHWQTKEEATYGVWAERDSDDERPSFGGKRARDYSAPVNFISAGLKKGAAEEAELEDSDDEEKPVKQDDFPKDFGPRKLKTGGNFKPSQKGFAGGTKSFMDFGSWERHTKGIGQKLLQKMGYVPGRGLGKNAQGIINPIEAKQRKGKGAVGAYGSERTTQSMQDFPVVDSEEEAEEEFQKELSQWRKDPSGSKKKPKYSYKTVEELKAKGRISKKLTAPQKELSQVKVIDMTGREQKVYYSYSQISHKHNVPDDGLPLQSQQLPQSGKEAKAPGFALPELEHNLQLLIDLTEQEIIQNDRQLQYERDMVVNLFHELEKMTEVLDHEERVISNLSKVLEMVEECERRMQPDCSNPLTLDECARIFETLQDKYYEEYRMSDRVDLAVAIVYPLMKEYFKEWDPLKDCTYGTEIISKWKSLLENDQLLSHGGQDLSADAFHRLIWEVWMPFVRNIVTQWQPRNCDPMVDFLDSWVHIIPVWILDNILDQLIFPKLQKEVENWNPLTDTVPIHSWIHPWLPLMQARLEPLYSPIRSKLSSALQKWHPSDSSAKLILQPWKDVFTPGSWEAFMVKNIVPKLGMCLGELVINPHQQHMDAFYWVIDWEGMISVSSLVGLLEKHFFPKWLQVLCSWLSNSPNYEEITKWYLGWKSMFSDQVLAHPSVKDKFNEALDIMNRAVSSNVGAYMQPGARENIAYLTHTERRKDFQYEAMQERREAENMAQRGIGVAASSVPMNFKDLIETKAEEHNIVFMPVIGKRHEGKQLYTFGRIVIYIDRGVVFVQGEKTWVPTSLQSLIDMAK
partner: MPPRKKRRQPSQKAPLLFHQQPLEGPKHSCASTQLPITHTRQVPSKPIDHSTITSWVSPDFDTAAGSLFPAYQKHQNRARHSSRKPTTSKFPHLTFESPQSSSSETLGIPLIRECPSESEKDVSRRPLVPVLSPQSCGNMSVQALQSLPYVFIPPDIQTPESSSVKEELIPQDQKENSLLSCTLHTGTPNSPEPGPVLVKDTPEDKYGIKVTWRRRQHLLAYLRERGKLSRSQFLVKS
B5: Emerin (Homo sapiens), P50402 (parent)
chain: MDNYADLSDTELTTLLRRYNIPHGPVVGSTRRLYEKKIFEYETQRRRLSPPSSSAASSYSFSDLNSTRGDADMYDLPKKEDALLYQSKGYNDDYYEESYFTTRTYGEPESAGPSRAVRQSVTSFPDADAFHHQVHDDDLLSSSEEECKDRERPMYGRDSAYQSITHYRPVSASRSSLDLSYYPTSSSTSFMSSSSSSSSWLTRRAIRPENRAPGAGLGQDRQVPLWGQLLLFLVFVIVLFFIYHFMQAEEGNPF
partner: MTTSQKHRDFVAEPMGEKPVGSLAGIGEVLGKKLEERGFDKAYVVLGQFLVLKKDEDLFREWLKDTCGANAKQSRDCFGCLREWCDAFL

Variants of: B1
Conditions: with kra56_human KRTAP5-6, Q6L8G9

| Variant | effect of a mutation on the interaction |
| --- | --- |
| R74Q | with no effect |

Variants of: B2
Conditions: with psmf1_human PSMF1, Q92530

| Variant | effect of a mutation on the interaction |
| --- | --- |
| R335P | with no effect |

Variants of: B3
Conditions: with cradd_human CRADD

| Variant | effect of a mutation on the interaction |
| --- | --- |
| H205R | with no effect |

Variants of: B3
Conditions: with suv92_human SUV39H2, Q9H5I1
Sequence of suv92_human SUV39H2, Q9H5I1 (Q9H5I1 whole entry): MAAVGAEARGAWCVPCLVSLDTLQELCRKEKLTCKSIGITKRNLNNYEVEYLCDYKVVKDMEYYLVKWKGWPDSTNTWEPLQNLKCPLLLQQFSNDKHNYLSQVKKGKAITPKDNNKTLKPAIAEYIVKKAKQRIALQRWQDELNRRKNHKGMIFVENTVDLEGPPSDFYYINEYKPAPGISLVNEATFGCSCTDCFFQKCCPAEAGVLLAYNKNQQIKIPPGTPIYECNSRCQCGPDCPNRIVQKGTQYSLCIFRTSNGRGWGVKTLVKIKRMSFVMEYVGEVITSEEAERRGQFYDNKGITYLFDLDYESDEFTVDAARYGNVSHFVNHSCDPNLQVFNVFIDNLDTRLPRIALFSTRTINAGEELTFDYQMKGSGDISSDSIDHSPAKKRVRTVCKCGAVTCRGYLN

| Variant | effect of a mutation on the interaction |
| --- | --- |
| H205R | with no effect |

Variants of: B3
Conditions: with rab5c_human RAB5C

| Variant | effect of a mutation on the interaction |
| --- | --- |
| K70R | with no effect |

Variants of: B4
Conditions: with rhno1_human RHNO1, Q9BSD3

| Variant | effect of a mutation on the interaction |
| --- | --- |
| S688L | with no effect |
| R8Q | with no effect |

Variants of: B5
Conditions: with baf_human BANF1, O75531

| Variant | effect of a mutation on the interaction |
| --- | --- |
| R203H | with no effect |
| D72V | with no effect |
| G156S | with no effect |
| S54F | with no effect |
